Experimental data as given in patent US20180371086A1 (Gilead, published 2018).

Experiments:
Test in all cases: cell-based or functional assay
[1] = target: HIV-1 Env of virus MGRM-AG-007 (HIV-1)
[2] = target: HIV-1 Env of virus MGRM-D-002 (HIV-1)
[3] = target: HIV-1 Env of virus MGRM-D-014 (HIV-1)
[4] = target: HIV-1 Env of virus MGRM-D-001 (HIV-1)
[5] = target: HIV-1 Env of virus MGRM-F1-010 (HIV-1)
[6] = target: HIV-1 Env of virus MGRM-F1-018 (HIV-1)
[7] = target: HIV-1 Env of virus MGRM-F1-016 (HIV-1)
[8] = target: HIV-1 Env of virus MGRM-F1-004 (HIV-1)
[9] = target: HIV-1 Env of virus MGRM-F1-012 (HIV-1)
[10] = target: HIV-1 Env of virus MGRM-G-014 (HIV-1)
[11] = target: HIV-1 Env of virus MGRM-G-001 (HIV-1)
[12] = target: HIV-1 Env of virus MGRM-G-019 (HIV-1)
[13] = target: HIV-1 Env of virus MGRM-G-024 (HIV-1)
[14] = target: HIV-1 Env of virus MGRM-G-013 (HIV-1)
[15] = target: HIV-1 Env of virus MGRM-G-011 (HIV-1)
[16] = target: HIV-1 Env of virus MGRM-Acute-B-005 (HIV-1)
[17] = target: HIV-1 Env of virus MGRM-Chronic-B-006 (HIV-1)
[18] = target: HIV-1 Env of virus MGRM-Chronic-B-008 (HIV-1)
[19] = target: HIV-1 Env of virus MGRM-Acute-B-007 (HIV-1)
[20] = target: HIV-1 Env of virus MGRM-Chronic-B-016 (HIV-1)
[21] = target: HIV-1 Env of virus MGRM-Acute-B-001 (HIV-1)
[22] = target: HIV-1 Env of virus MGRM-Acute-B-004 (HIV-1)
[23] = target: HIV-1 Env of virus MGRM-Chronic-B-005 (HIV-1)
[24] = target: HIV-1 Env of virus MGRM-Acute-B-006 (HIV-1)
[25] = target: HIV-1 Env of virus MGRM-Chronic-B-001 (HIV-1)
[26] = target: HIV-1 Env of virus MGRM-Chronic-B-015 (HIV-1)
[27] = target: HIV-1 Env of virus MGRM-Chronic-B-019 (HIV-1)
[28] = target: HIV-1 Env of virus MGRM-Chronic-B-007 (HIV-1)
[29] = target: HIV-1 Env of virus MGRM-Chronic-B-022 (HIV-1)
[30] = target: HIV-1 Env of virus MGRM-C-026 (HIV-1)
[31] = target: HIV-1 Env of virus MGRM-C-011 (HIV-1)
[32] = target: HIV-1 Env of virus MGRM-C-022 (HIV-1)
[33] = target: HIV-1 Env of virus MGRM-C-008 (HIV-1)
[34] = target: HIV-1 Env of virus MGRM-C-017 (HIV-1)
[35] = target: HIV-1 Env of virus MGRM-C-004 (HIV-1)
[36] = target: HIV-1 Env of virus MGRM-C-012 (HIV-1)
[37] = target: HIV-1 Env of virus MGRM-A-014 (HIV-1)
[38] = target: HIV-1 Env of virus MGRM-A-002 (HIV-1)
[39] = target: HIV-1 Env of virus MGRM-A-003 (HIV-1)
[40] = target: HIV-1 Env of virus MGRM-A-006 (HIV-1)
[41] = target: HIV-1 Env of virus MGRM-AG-006 (HIV-1)
[42] = target: gp120 (HT593) expressed on human embryonic kidney (HEK) cells (HIV-1)

B1: PGT121.60 hIgG1/hLambda (antibody)
heavy: QMQLQESGPGLVKPSETLSLTCSVSGASISDSYWSWIRRSPGKGLEWIGYVHKSGDTNYNPSLKSRVHLSLDTSKNQVSLSLTGVTAADSGKYYCARTLHGRRIYGIVAFNEWFTYFYMDVWGTGTQVTVSSASTKGPSVFPLAPSSKSTSGGTAALGCLVKDYFPEPVTVSWNSGALTSGVHTFPAVLQSSGLYSLSSVVTVPSSSLGTQTYICNVNHKPSNTKVDKKVEPKSCDKTHTCPPCPAPELLAGPDVFLFPPKPKDTLMISRTPEVTCVVVDVSHEDPEVKFNWYVDGVEVHNAKTKPREEQYNSTYRVVSVLTVLHQDWLNGKEYKCKVSNKALPLPEEKTISKAKGQPREPQVYTLPPSREEMTKNQVSLTCLVKGFYPSDIAVEWESNGQPENNYKTTPPVLDSDGSFFLYSKLTVDKSRWQQGNVFSCSVLHEALHSHYTQKSLSLSPGK
light: not shown
[1]
  PGT121.60 IC50: 0.108 µg/mL
[2]
  PGT121.60 IC50: 0.0015 µg/mL
[3]
  PGT121.60 IC50: 0.0019 µg/mL
[4]
  PGT121.60 IC50: 0.431 µg/mL
[5]
  PGT121.60 IC50: 0.0125 µg/mL
[6]
  PGT121.60 IC50: 0.0201 µg/mL
[7]
  PGT121.60 IC50: 0.522 µg/mL
[8]
  PGT121.60 IC50: 0.547 µg/mL
[9]
  PGT121.60 IC50: 1.19 µg/mL
[10]
  PGT121.60 IC50: 0.0034 µg/mL
[11]
  PGT121.60 IC50: 0.005 µg/mL
[12]
  PGT121.60 IC50: 0.0091 µg/mL
[13]
  PGT121.60 IC50: 0.0119 µg/mL
[14]
  PGT121.60 IC50: 1.5 µg/mL
[15]
  PGT121.60 IC50: 1.91 µg/mL
[16]
  PGT121.60 IC50: 0.0014 µg/mL
[17]
  PGT121.60 IC50: 0.002 µg/mL
[18]
  PGT121.60 IC50: 0.0056 µg/mL
[19]
  PGT121.60 IC50: 0.0255 µg/mL
[20]
  PGT121.60 IC50: 0.0283 µg/mL
[21]
  PGT121.60 IC50: 0.0313 µg/mL
[22]
  PGT121.60 IC50: 0.0497 µg/mL
[23]
  PGT121.60 IC50: 0.072 µg/mL
[24]
  PGT121.60 IC50: 0.0966 µg/mL
[25]
  PGT121.60 IC50: 0.0985 µg/mL
[26]
  PGT121.60 IC50: 0.185 µg/mL
[27]
  PGT121.60 IC50: 0.199 µg/mL
[28]
  PGT121.60 IC50: 2.55 µg/mL
[29]
  PGT121.60 IC50: 11.5 µg/mL
[30]
  PGT121.60 IC50: 0.0004 µg/mL
[31]
  PGT121.60 IC50: 0.0012 µg/mL
[32]
  PGT121.60 IC50: 0.0038 µg/mL
[33]
  PGT121.60 IC50: 0.0044 µg/mL
[34]
  PGT121.60 IC50: 0.0058 µg/mL
[35]
  PGT121.60 IC50: 0.0064 µg/mL
[36]
  PGT121.60 IC50: 0.0338 µg/mL
[37]
  PGT121.60 IC50: 0.001 µg/mL
[38]
  PGT121.60 IC50: 0.0047 µg/mL
[39]
  PGT121.60 IC50: 0.0865 µg/mL
[40]
  PGT121.60 IC50: 4.05 µg/mL
[41]
  PGT121.60 IC50: 0.0106 µg/mL
[42]
  % ADCC Activity (ADCC reporter cell based assay; sample stressed at 25° C. for 4 weeks, relative to its untreated control): 65%
